Results published in patent US11351270B2, “Junctophilin-2 fragments and uses therefor” (University of Iowa Research Foundation, priority 2016, dated 2022).

How the values were obtained:
TATA box DNA sequences = assay: Gel shift assay with TATA box sequences; format: binding; details: GST-purified protein; cMyc or CMV promoter sequences
Excerpt: FIGS. 11A-H. JP2NT is a TATA-box binding protein enriched at transcription start site (TSS) and interacts with basic transcription machinery. […] C) 293T cells were transfected with HA-tagged JP2NT, followed by crosslinking-reversal immunoprecipitation with anti-HA and immunoblotting with anti-polymerase II (Rpb1) or anti-TATA box binding protein (TBP). D-H) JP2NT binds to TATA box DNA sequences in vitro. D-E) Gel shift assays of GST-purified JP2NT binding to WT (D). or mutated TATA box-containing sequences (E) derived from the cMyc promoter. F) Summary of the results of gel shift assays with various of TATA box variants or mutants. Mutation of the core TATA sequences abolished the interaction with GST-JP2NT. G) Deletion of the ARR, but not the N-terminal MORN domains, eliminated JP2NT binding to the TATA box sequence. H) The peptide JP2^331-405 containing the ARR specifically binds to WT TATA box sequence.
TBP specifically binds to TATA boxes, eukaryotic core cis-regulatory elements localized at transcription start site. […] This interaction was abrogated by mutation of the TATA box elements (FIGS. 11E&G and 17B). It was concluded that JP2NT is a DNA binding protein, binding to consensus TATA box represented as TATAA(A/T) or TATATA (FIG. 11F).

[1] = system: cultured adult murine cardiomyocytes; assay: Affymetrix Genechip analysis of cultured cardiomyocytes; format: cell-based, mouse
Method: Genecarrior-1 (Epoch Lab) was used to transfect plasmids into HEK293T cells. Isolation and culture of cardiomyocytes were performed as described previously (Guo et al., 2015). Adenoviruses were applied at a multiplicity of infection (MOI) of about 100, which results in transfection of almost all cells as confirmed by immunostaining of eptiope tags.
Microarray assay was performed by Affymetrix GeneChip® Mouse Genome 430 2.0 according to the standard procedure of cRNA preparation and Genechip hybridization. The R package limma (version 3.22.7) (Ritchie et al., 2015) was used for processing microarray data and identifying differentially expressed genes (the cutoff of significance was p value<0.01). David (Huang et al., 2009) was used for gene enrichment (GO) analysis. Ingenuity pathway analysis (IPA, Qiagen) was used for pathway analysis.

genomic DNA = assay: ChIP-seq of JP2NT-OE hearts; format: binding, mouse; details: anti-HA ChIP-seq
Method: ChIP-seq from transgenic myocardium was performed using the antibody against HA-tag, which pulls down the HA-tagged JP2NT. Sequencing libraries were prepared for the pulled-down DNA and input DNA (randomly fragmented genomic DNA), and then were subjected to Illumina sequencing (NextSeq 500 platform, 75 bp single end reads). The quality of sequencing reads was evaluated by FastQC (version 0.11.3) software (http://www.bioinformatics.babraham.ac.uk/projects/fastqc/) and the sequencing adaptor was trimmed by Cutadapt (version 1.8.1) software (Martin, 2011). Processed sequencing reads were aligned to mouse genome (mm10) by Bowtie 2 (version 2.2.5) software (Langmead et al., 2012) with the “-end-to-end” mode. MACS (version 1.4.2) software […] was used to call enriched peaks (the cutoff of significance was p value<1e-10). Homer (version 4.8.3) software (Heinz et al., 2010) was used to analyze the enriched genomic features of peaks, identify the target genes, and search the binding motifs.

[2] = system: cardiac transcription profile; assay: RNA-Seq of myocardium of JP2NT-OE mice; format: in vivo, mouse
Method: Illumina TruSeq Stranded mRNA Library Prep Kit was used to prepare the sequencing library for myocardium samples. Sequencing was performed by Illumina HiSeq 2500 platform (2×125 bp paired-end). Kallisto (0.42.5) software (Bray et al., 2016) was used to quantify transcript abundance of mouse transcriptome (Grcm38). Sleuth (0.28.1) software (Pimentel et al., 2018) was used to investigate the differential expression of transcripts between groups (the cutoff of significance was p value<0.01).

chromatin = assay: Biochemical fractionation for chromatin association; format: cell-based; details: MNASE digestion, Western blot
Excerpt: FIGS. 10A-D. JP2NT contains a NLS and a chromatin/DNA-binding domain. A-B) A conserved NLS in JP2 N-terminus is essential for nuclear accumulation of JP2NT. a-c, Subcellular localization of eGFP and eGFP-fused JP2 and eGFP-JP2NT in 293T cells. Full length JP2 localizes on both plasma membrane and ER network (b). […] C-D) JP2NT associates with chromatin. a, Schematic of the subcellular fractionation approach (adapted from Wisoka et al 2001). b, Subnuclear distribution of JP2NT and fragments/mutants. JP2NT is present in both soluble nuclear (S3) and chromatin fractions (S4). Deletion of the MORN domains (JP2NT JP2NT^ΔMORNs) had no effect on subnuclear distribution of JP2NT. However, the amount of chromatin-associated JP2NT was decreased by deletion of the bNLS alone (JP2NT^ΔMORNs/ΔbNLS), deletion of the ARR alone (JP2 JP2NT^ΔMORNs/ΔARR), or deletion of both the bNLS and ARR (JP2^ΔMORNs/ΔbNLS/ΔARR and JP2NT^ΔbNLS/ΔARR). Histone H3: chromatin marker.
Ultracentrifuge based protein fractionation was performed following the protocol described previously (van Berlo et al., 2013). For some experiments, the soluble nuclear fraction (Nu-S) was separately extracted using nuclear extraction buffer (NEB) from the Tissue subcellular fractionation kit of Thermo Scientific, and the remaining insoluble fraction was subjected to MNASE digestion for chromatin fraction extraction. […]

B1: JP2NT: shorter form of Junctophilin-2 including the first 565 amino acids of N-terminus of JP2 (protein, UniProt Q9BR39 1-565, looked up, fragment)
chain: MSGGRFDFDDGGAYCGGWEGGKAHGHGLCTGPKGQGEYSGSWNFGFEVAGVYTWPSGNTFEGYWSQGKRHGLGIETKGRWLYKGEWTHGFKGRYGIRQSSSSGAKYEGTWNNGLQDGYGTETYADGGTYQGQFTNGMRHGYGVRQSVPYGMAVVVRSPLRTSLSSLRSEHSNGTVAPDSPASPASDGPALPSPAIPRGGFALSLLANAEAAARAPKGGGLFQRGALLGKLRRAESRTSVGSQRSRVSFLKSDLSSGASDAASTASLGEAAEGADEAAPFEADIDATTTETYMGEWKNDKRSGFGVSERSSGLRYEGEWLDNLRHGYGCTTLPDGHREEGKYRHNVLVKDTKRRMLQLKSNKVRQKVEHSVEGAQRAAAIARQKAEIAASRTSHAKAKAEAAEQAALAANQESNIARTLARELAPDFYQPGPEYQKRRLLQEILENSESLLEPPDRGAGAAGLPQPPRESPQLHERETPRPEGGSPSPAGTPPQPKRPRPGVSKDGLLSPGAWNGEPSGEGSRSVTPSEGAGRRSPARPATERMAIEALQAPPAPSREPEVALYQG
modifications: GST or adenoviral forms
notes: shorter form of Junctophilin-2 including the first 565 amino acids of N-terminus of JP2
- binding to TATA box (TATA box DNA sequences): directly binds
- differentially expressed genes mapped to genomic loci bound in ChIP-seq [1]: about 74%
- ERK/MAPK, NF-κB, TGF-β and integrin signaling pathways (Ingenuity Pathway Analysis) ([1]; IPA of differentially expressed genes): predicted to be inhibited
- significantly induced known genes (p<0.01) ([1]; vs Ad-Empty control): 574 genes
- significantly repressed known genes (p<0.01) ([1]; vs Ad-Empty control): 1996 genes
- JP2NT-binding genomic DNA regions (p<10^−10) (genomic DNA): 18,242
- genes encompassed by JP2NT-binding regions (genomic DNA): 10,587 genes
- ERK, TGF-β, CREB and NFκ-B signaling pathways (IPA) ([2]; TAB): predicted inhibition
- known genes of negatively influenced transcripts ([2]; TAB): 481 genes
- known genes of positively influenced transcripts ([2]; TAB): 476 genes
- transcripts negatively influenced ([2]; TAB): 540 transcripts
- transcripts positively influenced ([2]; TAB): 542 transcripts
- transcripts significantly different in response to cardiac stress ([2]; TAB, linear regression model, p<0.01): 1082 transcripts
- known genes from which the significantly different transcripts derive ([2]; TAB, p<0.01): 954 genes
- significantly altered genes (p<0.01) at baseline ([2]; baseline, relative to control littermates): 49 genes
- association with chromatin (insoluble nuclear fraction) (chromatin): detected in both soluble (S3) and chromatin containing insoluble (P4) nuclear fractions
